# B1: αMγ heterodimer of HsIDH3 (α-Q139A with γ) (complex, human)
# chain 1: TGGVQTVTLIPGDGIGPEISAAVMKIFDAAKAPIQWEERNVTAIQGPGGKWMIPSEAKESMDKNKMGLKGPLKTPIAAGHPSMNLLLRKTFDLYANVRPCVSIEGYKTPYTDVNIVTIRENTEGEYSGIEHVIVDGVVASIKLITEGASKRIAEFAFEYARNNHRSNVTAVHKANIMRMSDGLFLQKCREVAESCKDIKFNEMYLDTVCLNMVQDPSQFDVLVMPNLYGDILSDLCAGLIGGLGVTPSGNIGANGVAIFESVHGTAPDIAGKDMANPTALLLSAVMMLRHMGLFDHAARIEAACFATIKDGKSLTKDLGGNAKCSDFTEEICRRVKDLD
# chain 2: FSEQTIPPSAKYGGRHTVTMIPGDGIGPELMLHVKSVFRHACVPVDFEEVHVSSNADEEDIRNAIMAIRRNRVALKGNIETNHNLPPSHKSRNNILRTSLDLYANVIHCKSLPGVVTRHKDIDILIVRENTEGEYSSLEHESVAGVVESLKIITKAKSLRIAEYAFKLAQESGRKKVTAVHKANIMKLGDGLFLQCCREVAARYPQITFENMIVDNTTMQLVSRPQQFDVMVMPNLYGNIVNNVCAGLVGGPGLVAGANYGHVYAVFETATRNTGKSIANKNIANPTATLLASCMMLDHLKLHSYATSIRKAVLASMDNENMHTPDIGGQGTTSEAIQDVIRHIRVINGRAVEA
# notes: α subunit of human IDH3 (HsIDH3), Q139A; γ subunit of human IDH3 (HsIDH3); One α and one γ chain; the heterodimer is the unit that associates into the (αMγ)2 heterotetramer; also called α_(Q139A)γ; mutant αγ heterodimer; source: E. coli BL21 (DE3) Codon-Plus, co-expressed from pQlinkN-α-γ-tev-His6, purified (Ni-NTA, TEV cleavage, gel filtration); not shown: His6, C-terminal, cleaved
# Target: the molecule itself
# Test: SEC-MALS; low concentration (1 mg/ml); Superdex 200 10/300 GL, 24 °C, 10 mM Hepes pH 7.4, 200 mM NaCl, 5 mM β-ME; N counts the units (heterodimers or heterotetramers) in the oligomer
protein,measurement,value
B1,stoichiometry N,2
